This experiment deals with T1, 人VEGFC-His(金赛自构) (human).
T1 construct: also called hVEGFC-His; hVEGFC
T1 chain: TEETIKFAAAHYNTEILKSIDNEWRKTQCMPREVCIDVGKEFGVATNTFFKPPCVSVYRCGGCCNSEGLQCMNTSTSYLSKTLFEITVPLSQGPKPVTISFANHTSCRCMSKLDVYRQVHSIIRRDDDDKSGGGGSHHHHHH
Briefly: ELISA, human VEGFC-His coated at 1 μg/ml.

B1: 抗人VEGFC单克隆抗体P01-H1L4 (antibody, V domains shown)
VH: EVRLLESGGGLVQPGGSLRLSCAASGFTFRRSTMAWVRQAPGKGLEWVSSISAQGANTYYADNVKGRFTISRDNSKNTLYLQMNSLRAEDTAVYYCARDLPAGGFGPWGRGTMVTVSS
VL: SYELTQPPSSSGTPGQRVTISCRGSSSNIGRYSVSWYQQVPGTAPKLLIYTDNQRPSGVPDRFSASKSGTSASLTITGLQSEDEADYYCAAWDDSQYGPWVFGGGTKLTVL
notes: also called 阳性对照抗体P01-H1L4; 对照抗体P01-H1L4
Turning to B1, the binding result was “binds”.

Values taken from patent CN112961250A (CHANGCHUN GENESCIENCE PHARMACEUTICALS CO LTD, dated 2021).
